Measured values from patent publication US20220298260A1 (MYTHIC THERAPEUTICS, published 2022).

Target: T1, FOLR1 (R&D Systems, Cat #5646-FR) (human, UniProt P15328 25-233)
T1 construct: Bought soluble protein; also called Folate Receptor 1
Assay: BLI, IgG on anti-human Fc sensor, 50 nM FOLR1

T1 sequence (P15328 25-233 limits assumed): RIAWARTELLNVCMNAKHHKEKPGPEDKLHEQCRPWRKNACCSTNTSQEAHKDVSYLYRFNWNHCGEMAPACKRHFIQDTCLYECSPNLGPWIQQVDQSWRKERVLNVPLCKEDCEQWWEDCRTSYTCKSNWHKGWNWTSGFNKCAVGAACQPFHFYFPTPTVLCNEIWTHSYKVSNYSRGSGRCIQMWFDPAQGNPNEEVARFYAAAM

Row | binding result | Binder
1 | binds | MYT0628 (antibody, V domains shown, IgG) VH: QVQLVQSGAEVVKPGASVKISCKASGYTFTGYFMNWVKQSPGQSLEWIGRIHPYDGDTFYNQKFQGKATLTVDKSSNTAHMELLSLTSEDFAVYYCTHYDGSRAMDYWGQGTTVTVSS VL: DIVLTQSPLSLAVSLGQPAIISCKASQSVSFAGTSLMHWYHQKPGQQPRLLIYRASNLEAGVPDRFSGSGSKTDFTLTISPVEAEDAATYYCQQSREYPYTFGGGTKLEIK
2 | binds | MYT0636 (antibody, V domains shown, IgG) VH: QVQLVQSGAEVVKPGASVKISCKASGYTFTGYFMNWVKQSPGQSLEWIGRIHPYDGDTFYNQKFQGKATLTVDKSSNTAHMELLSLTSEDFAVYYCTRYDGSRAMHYWGQGTTVTVSS VL: DIVLTQSPLSLAVSLGQPAIISCKASQSVSFAGTSLMHWYHQKPGQQPRLLIYRASNLEAGVPDRFSGSGSKTDFTLTISPVEAEDAATYYCQQSREYPYTFGGGTKLEIK
3 | binds | MYT1156 (antibody, V domains shown, IgG) VH: QVQLVQSGAEVVKPGASVKISCKHSGYTFTGYFMNWVKQSPGQSLEWIGRIHPHDGDTHYNQKFQGKATLTVDKSSNTAHMELLSLTSEDFAVYYCTRYDGSRAMDYWGQGTTVTVSS VL: DIVLTQSPLSLAVSLGQPAIISCKASQSVSFAGTSLMHWYHQKPGQQPRLLIYRASNLEAGVPDRFSGSGSKTDFTLTISPVEAEDAATYYCQQSREYPYTFGGGTKLEIK
4 | binds | MYT1157 (antibody, V domains shown, IgG) VH: QVQLVQSGAEVVKPGASVKISCKHSGYTFTGYFMNWVKQSPGQSLEWIGRIHPYDGDHHYNQKFQGKATLTVDKSSNTAHMELLSLTSEDFAVYYCTRYDGSRAMDYWGQGTTVTVSS VL: DIVLTQSPLSLAVSLGQPAIISCKASQSVSFAGTSLMHWYHQKPGQQPRLLIYRASNLEAGVPDRFSGSGSKTDFTLTISPVEAEDAATYYCQQSREYPYTFGGGTKLEIK
5 | binds | MYT0627 (antibody, V domains shown, IgG) VH: QVQLVQSGAEVVKPGASVKISCKASGYTFTGYFMNWVKQSPGQSLEWIGRIHPYDGDTFYNQKFQGKATLTVDKSSNTAHMELLSLTSEDFAVYYCHRYDGSRAMDYWGQGTTVTVSS VL: DIVLTQSPLSLAVSLGQPAIISCKASQSVSFAGTSLMHWYHQKPGQQPRLLIYRASNLEAGVPDRFSGSGSKTDFTLTISPVEAEDAATYYCQQSREYPYTFGGGTKLEIK
6 | binds | MYT1160 (antibody, V domains shown, IgG) VH: QVQLVQSGAEVVKPGASVKISCKASGHTFTGYFMNWVKQSPGQSLEWIGRIHPYDGDHHYNQKFQGKATLTVDKSSNTAHMELLSLTSEDFAVYYCTRYDGSRAMDYWGQGTTVTVSS VL: DIVLTQSPLSLAVSLGQPAIISCKASQSVSFAGTSLMHWYHQKPGQQPRLLIYRASNLEAGVPDRFSGSGSKTDFTLTISPVEAEDAATYYCQQSREYPYTFGGGTKLEIK
7 | binds | MYT0630 (antibody, V domains shown, IgG) VH: QVQLVQSGAEVVKPGASVKISCKASGYTFTGYFMNWVKQSPGQSLEWIGRIHPYDGDTFYNQKFQGKATLTVDKSSNTAHMELLSLTSEDFAVYYCTRYHGSRAMDYWGQGTTVTVSS VL: DIVLTQSPLSLAVSLGQPAIISCKASQSVSFAGTSLMHWYHQKPGQQPRLLIYRASNLEAGVPDRFSGSGSKTDFTLTISPVEAEDAATYYCQQSREYPYTFGGGTKLEIK
8 | binds | MYT0623 (antibody, V domains shown, IgG) VH: QVQLVQSGAEVVKPGASVKISCKASGYTFTGYFMNWVKQSPGQSLEWIGRIHPYDGDTFYNQHFQGKATLTVDKSSNTAHMELLSLTSEDFAVYYCTRYDGSRAMDYWGQGTTVTVSS VL: DIVLTQSPLSLAVSLGQPAIISCKASQSVSFAGTSLMHWYHQKPGQQPRLLIYRASNLEAGVPDRFSGSGSKTDFTLTISPVEAEDAATYYCQQSREYPYTFGGGTKLEIK
9 | binds | MYT0629 (antibody, V domains shown, IgG) VH: QVQLVQSGAEVVKPGASVKISCKASGYTFTGYFMNWVKQSPGQSLEWIGRIHPYDGDTFYNQKFQGKATLTVDKSSNTAHMELLSLTSEDFAVYYCTRHDGSRAMDYWGQGTTVTVSS VL: DIVLTQSPLSLAVSLGQPAIISCKASQSVSFAGTSLMHWYHQKPGQQPRLLIYRASNLEAGVPDRFSGSGSKTDFTLTISPVEAEDAATYYCQQSREYPYTFGGGTKLEIK
10 | binds | MYT0625 (antibody, V domains shown, IgG) VH: QVQLVQSGAEVVKPGASVKISCKASGYTFTGYFMNWVKQSPGQSLEWIGRIHPYDGDTFYNQKFHGKATLTVDKSSNTAHMELLSLTSEDFAVYYCTRYDGSRAMDYWGQGTTVTVSS VL: DIVLTQSPLSLAVSLGQPAIISCKASQSVSFAGTSLMHWYHQKPGQQPRLLIYRASNLEAGVPDRFSGSGSKTDFTLTISPVEAEDAATYYCQQSREYPYTFGGGTKLEIK
11 | binds | MYT0632 (antibody, V domains shown, IgG) VH: QVQLVQSGAEVVKPGASVKISCKASGYTFTGYFMNWVKQSPGQSLEWIGRIHPYDGDTFYNQKFQGKATLTVDKSSNTAHMELLSLTSEDFAVYYCTRYDGHRAMDYWGQGTTVTVSS VL: DIVLTQSPLSLAVSLGQPAIISCKASQSVSFAGTSLMHWYHQKPGQQPRLLIYRASNLEAGVPDRFSGSGSKTDFTLTISPVEAEDAATYYCQQSREYPYTFGGGTKLEIK

Further lines, the binder ahead of its results:

Row | Binder | binding result
12 | MYT0621 (antibody, V domains shown, IgG) VH: QVQLVQSGAEVVKPGASVKISCKASGYTFTGYFMNWVKQSPGQSLEWIGRIHPYDGDTFYHQKFQGKATLTVDKSSNTAHMELLSLTSEDFAVYYCTRYDGSRAMDYWGQGTTVTVSS VL: DIVLTQSPLSLAVSLGQPAIISCKASQSVSFAGTSLMHWYHQKPGQQPRLLIYRASNLEAGVPDRFSGSGSKTDFTLTISPVEAEDAATYYCQQSREYPYTFGGGTKLEIK | binds
13 | MYT1159 (antibody, V domains shown, IgG) VH: QVQLVQSGAEVVKPGASVKISCKASGHTFTGYFMNWVKQSPGQSLEWIGRIHPHDGDTHYNQKFQGKATLTVDKSSNTAHMELLSLTSEDFAVYYCTRYDGSRAMDYWGQGTTVTVSS VL: DIVLTQSPLSLAVSLGQPAIISCKASQSVSFAGTSLMHWYHQKPGQQPRLLIYRASNLEAGVPDRFSGSGSKTDFTLTISPVEAEDAATYYCQQSREYPYTFGGGTKLEIK | binds
14 | MYT0626 (antibody, V domains shown, IgG) VH: QVQLVQSGAEVVKPGASVKISCKASGYTFTGYFMNWVKQSPGQSLEWIGRIHPYDGDTFYNQKFQHKATLTVDKSSNTAHMELLSLTSEDFAVYYCTRYDGSRAMDYWGQGTTVTVSS VL: DIVLTQSPLSLAVSLGQPAIISCKASQSVSFAGTSLMHWYHQKPGQQPRLLIYRASNLEAGVPDRFSGSGSKTDFTLTISPVEAEDAATYYCQQSREYPYTFGGGTKLEIK | binds
15 | MYT0622 (antibody, V domains shown, IgG) VH: QVQLVQSGAEVVKPGASVKISCKASGYTFTGYFMNWVKQSPGQSLEWIGRIHPYDGDTFYNHKFQGKATLTVDKSSNTAHMELLSLTSEDFAVYYCTRYDGSRAMDYWGQGTTVTVSS VL: DIVLTQSPLSLAVSLGQPAIISCKASQSVSFAGTSLMHWYHQKPGQQPRLLIYRASNLEAGVPDRFSGSGSKTDFTLTISPVEAEDAATYYCQQSREYPYTFGGGTKLEIK | binds
16 | MYT1155 (antibody, V domains shown, IgG) VH: QVQLVQSGAEVVKPGASVKISCKHSGYTFTGYFMNWVKQSPGQSLEWIGRIHPHDGDHFYNQKFQGKATLTVDKSSNTAHMELLSLTSEDFAVYYCTRYDGSRAMDYWGQGTTVTVSS VL: DIVLTQSPLSLAVSLGQPAIISCKASQSVSFAGTSLMHWYHQKPGQQPRLLIYRASNLEAGVPDRFSGSGSKTDFTLTISPVEAEDAATYYCQQSREYPYTFGGGTKLEIK | binds
17 | MYT1158 (antibody, V domains shown, IgG) VH: QVQLVQSGAEVVKPGASVKISCKASGHTFTGYFMNWVKQSPGQSLEWIGRIHPHDGDHFYNQKFQGKATLTVDKSSNTAHMELLSLTSEDFAVYYCTRYDGSRAMDYWGQGTTVTVSS VL: DIVLTQSPLSLAVSLGQPAIISCKASQSVSFAGTSLMHWYHQKPGQQPRLLIYRASNLEAGVPDRFSGSGSKTDFTLTISPVEAEDAATYYCQQSREYPYTFGGGTKLEIK | binds
18 | MYT0635 (antibody, V domains shown, IgG) VH: QVQLVQSGAEVVKPGASVKISCKASGYTFTGYFMNWVKQSPGQSLEWIGRIHPYDGDTFYNQKFQGKATLTVDKSSNTAHMELLSLTSEDFAVYYCTRYDGSRAHDYWGQGTTVTVSS VL: DIVLTQSPLSLAVSLGQPAIISCKASQSVSFAGTSLMHWYHQKPGQQPRLLIYRASNLEAGVPDRFSGSGSKTDFTLTISPVEAEDAATYYCQQSREYPYTFGGGTKLEIK | binds
19 | MYT0637 (antibody, V domains shown, IgG) VH: QVQLVQSGAEVVKPGASVKISCKASGYTFTGYFMNWVKQSPGQSLEWIGRIHPYDGDTFYNQKFQGKATLTVDKSSNTAHMELLSLTSEDFAVYYCTRYDGSRAMDHWGQGTTVTVSS VL: DIVLTQSPLSLAVSLGQPAIISCKASQSVSFAGTSLMHWYHQKPGQQPRLLIYRASNLEAGVPDRFSGSGSKTDFTLTISPVEAEDAATYYCQQSREYPYTFGGGTKLEIK | binds
20 | MYT0633 (antibody, V domains shown, IgG) VH: QVQLVQSGAEVVKPGASVKISCKASGYTFTGYFMNWVKQSPGQSLEWIGRIHPYDGDTFYNQKFQGKATLTVDKSSNTAHMELLSLTSEDFAVYYCTRYDGSHAMDYWGQGTTVTVSS VL: DIVLTQSPLSLAVSLGQPAIISCKASQSVSFAGTSLMHWYHQKPGQQPRLLIYRASNLEAGVPDRFSGSGSKTDFTLTISPVEAEDAATYYCQQSREYPYTFGGGTKLEIK | binds
21 | MYT0624 (antibody, V domains shown, IgG) VH: QVQLVQSGAEVVKPGASVKISCKASGYTFTGYFMNWVKQSPGQSLEWIGRIHPYDGDTFYNQKHQGKATLTVDKSSNTAHMELLSLTSEDFAVYYCTRYDGSRAMDYWGQGTTVTVSS VL: DIVLTQSPLSLAVSLGQPAIISCKASQSVSFAGTSLMHWYHQKPGQQPRLLIYRASNLEAGVPDRFSGSGSKTDFTLTISPVEAEDAATYYCQQSREYPYTFGGGTKLEIK | binds
